Target: HLA-A2 molecules on the surface of human T2 cells (Homo sapiens, UniProt P04439, D140Y/D185E/D98H/E176V/E277Q/G131W/G231S/I119V/I121R/I166T/I218V/L300P/L318F/N151K/N90K/P208A/P217A/Q86G/Q94H/R138H/R169H/T345S)
Test: Peptide stability assay (peptide/HLA-A2 binding stability post-Brefeldin A)

GLVGLIFAV (listed as Homo sapiens) [CD138 #2p, native CD138 peptide]
HLA-A2 binding stability (CD138 peptide (FIG. 12), 0 hr, 2 hr, 4 hr, 6 hr, or overnight): nearly equivalent to influenza virus protein matrix peptide58-66

NISPWILAV (listed as Homo sapiens) [XBP1184-192, native non-spliced XBP1 peptide]
HLA-A2 binding stability (non-spliced XBP1 peptides (FIG. 2), 0, 2, 4, 6 and 18 hours post-Brefeldin A): significantly lower level of HLA-A2 binding stability as compared to the influenza virus protein matrix peptide58-66

Reference: patent US9096681B2, “XBP1, CD138, and CS1 peptides” (Dana-Farber Cancer Institute, Inc., priority 2008, dated 2015)
